Results reported in paper PMC8288866, “MKRN3 regulates the epigenetic switch of mammalian puberty via ubiquitination of MBD3” (National Science Review, 2020).

Tests used:
MBD3 (Homo sapiens) [1] = biological target: T1, MBD3 (Homo sapiens) (UniProt O95983); experiment: competition; settings: EMSA with 32P-labeled PCR probes, binding buffer, salt, pH and temperature not in the material
T1 sequence: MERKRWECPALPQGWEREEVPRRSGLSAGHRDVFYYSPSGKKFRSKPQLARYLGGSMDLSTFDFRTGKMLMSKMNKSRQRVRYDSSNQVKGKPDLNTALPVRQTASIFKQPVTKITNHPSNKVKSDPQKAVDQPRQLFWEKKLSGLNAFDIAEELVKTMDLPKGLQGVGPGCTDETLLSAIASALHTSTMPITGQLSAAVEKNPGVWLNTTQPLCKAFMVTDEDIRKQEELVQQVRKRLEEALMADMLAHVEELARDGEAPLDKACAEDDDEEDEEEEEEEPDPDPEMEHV

MBD3 (Homo sapiens) [2] = biological target: T1, MBD3 (Homo sapiens); experiment: EMSA; settings: EMSA with 32P-labeled PCR probes, binding buffer, salt, pH and temperature not in the material
[3] = biological target: T2, recombinant MKRN3 protein (GST-tagged) (human, UniProt Q13064 1-507); experiment: pull-down; GST pull-down of MKRN3 protein with His6-tagged MBD3, in vitro; settings: both partners purified
T2 construct: MKRN3 (Makorin ring finger protein 3), human, E3 ubiquitin ligase; also called Makorin ring finger protein 3; source: recombinant
T2 sequence (looked up): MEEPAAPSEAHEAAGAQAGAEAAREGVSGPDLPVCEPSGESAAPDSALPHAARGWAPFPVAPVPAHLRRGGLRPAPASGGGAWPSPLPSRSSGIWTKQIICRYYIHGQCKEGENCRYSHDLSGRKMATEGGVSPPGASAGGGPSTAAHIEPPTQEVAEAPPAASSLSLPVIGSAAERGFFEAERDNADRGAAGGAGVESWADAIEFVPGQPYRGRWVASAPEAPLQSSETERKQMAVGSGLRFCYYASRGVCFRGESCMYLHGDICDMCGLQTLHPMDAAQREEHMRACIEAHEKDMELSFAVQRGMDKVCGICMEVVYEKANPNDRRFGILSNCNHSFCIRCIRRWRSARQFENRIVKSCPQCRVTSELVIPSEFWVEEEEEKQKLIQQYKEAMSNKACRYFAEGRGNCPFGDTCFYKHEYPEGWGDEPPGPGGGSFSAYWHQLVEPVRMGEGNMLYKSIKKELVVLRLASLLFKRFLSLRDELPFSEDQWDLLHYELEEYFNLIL

## TTCTTCAGCTTTGGGACTCAGACTGGCTTTCCTTGCTCCTCAGCTTGCGGACGGCCTACTGTGGGACCTTGGGATCGTGTGAGTTAATACTTAATAAACTCTCCTATGTGCGTGTGTTTGTGTGTGTGTGTGTGTGTGTATGTATTCTGTCCCTCTAGAGAATGCTGAGTAATACA (double strand) [GNRH1 promoter 5hmC competitor]
MBD3 (Homo sapiens) [1]; 5-hydroxymethylcytosine
  binding: binds

## TTCTTCAGCTTTGGGACTCAGACTGGCTTTCCTTGCTCCTCAGCTTGCGGACGGCCTACTGTGGGACCTTGGGATCGTGTGAGTTAATACTTAATAAACTCTCCTATGTGCGTGTGTTTGTGTGTGTGTGTGTGTGTGTATGTATTCTGTCCCTCTAGAGAATGCTGAGTAATACA (double strand) [GNRH1 promoter 5hmC probe]
MBD3 (Homo sapiens) [2]; all cytosines 5-hydroxymethylcytosine (PCR with 5hm-dCTP; primer-derived cytosines presumably unmodified)
  binding: binds

## TTCTTCAGCTTTGGGACTCAGACTGGCTTTCCTTGCTCCTCAGCTTGCGGACGGCCTACTGTGGGACCTTGGGATCGTGTGAGTTAATACTTAATAAACTCTCCTATGTGCGTGTGTTTGTGTGTGTGTGTGTGTGTGTATGTATTCTGTCCCTCTAGAGAATGCTGAGTAATACA (double strand) [GNRH1 promoter 5mC probe]
MBD3 (Homo sapiens) [2]; 5-methylcytosine (PCR with 5m-dCTP; primer-derived cytosines presumably unmodified)
  binding: no binding

## TTCTTCAGCTTTGGGACTCAGACTGGCTTTCCTTGCTCCTCAGCTTGCGGACGGCCTACTGTGGGACCTTGGGATCGTGTGAGTTAATACTTAATAAACTCTCCTATGTGCGTGTGTTTGTGTGTGTGTGTGTGTGTGTATGTATTCTGTCCCTCTAGAGAATGCTGAGTAATACA (double strand) [GNRH1 promoter unmodified C probe]
MBD3 (Homo sapiens) [2]
  binding: binds more weakly

## TTCTTCAGCTTTGGGACTCAGACTGGCTTTCCTTGCTCCTCAGCTTGCGGACGGCCTACTGTGGGACCTTGGGATCGTGTGAGTTAATACTTAATAAACTCTCCTATGTGCGTGTGTTTGTGTGTGTGTGTGTGTGTGTATGTATTCTGTCCCTCTAGAGAATGCTGAGTAATACA (double strand) [GNRH1 promoter unmodified competitor]
MBD3 (Homo sapiens) [1]
  binding: binds more weakly

B1: His6-tagged MBD3 (natural protein, human, UniProt O95983 1-291, looked up)
chain: MERKRWECPALPQGWEREEVPRRSGLSAGHRDVFYYSPSGKKFRSKPQLARYLGGSMDLSTFDFRTGKMLMSKMNKSRQRVRYDSSNQVKGKPDLNTALPVRQTASIFKQPVTKITNHPSNKVKSDPQKAVDQPRQLFWEKKLSGLNAFDIAEELVKTMDLPKGLQGVGPGCTDETLLSAIASALHTSTMPITGQLSAAVEKNPGVWLNTTQPLCKAFMVTDEDIRKQEELVQQVRKRLEEALMADMLAHVEELARDGEAPLDKACAEDDDEEDEEEEEEEPDPDPEMEHV
notes: MBD3, human; also called recombinant MBD3; recombinant human MBD3 protein; source: recombinant
[3]
  binding result: binds
